Three molecules from US20250304918A1 (Regeneron, published 2025) can be followed below.

For assay [1], the target named is T1, mouse CACNG1 (mouse, UniProt O70578 1-223).
T1 construct: In the functional entries it is the endogenous protein on muscle of D2-mdx mice or on C2C12 myotubes
T1 sequence: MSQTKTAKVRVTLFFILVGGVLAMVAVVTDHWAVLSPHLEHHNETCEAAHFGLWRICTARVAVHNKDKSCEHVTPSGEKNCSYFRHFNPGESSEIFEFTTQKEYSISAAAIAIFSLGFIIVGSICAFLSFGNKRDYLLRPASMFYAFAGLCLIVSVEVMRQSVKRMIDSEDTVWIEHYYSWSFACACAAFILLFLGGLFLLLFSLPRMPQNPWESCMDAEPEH
Briefly: no binding assay described; definition of the label.

Assay [2] deals with T1, mouse CACNG1. Briefly: no binding assay described; descriptor in figure legend.
Assay [3] deals with T2, human CACNG1 (Calcium Voltage-Gaged Auxiliary Subunit Gamma 1) (human, UniProt Q06432 1-222).
T2 construct: In the transduction experiments it was expressed on 293 cells, human myotubes or muscle of humanized mice; also called hCACNG1; human CACNG1 protein
Described as above.

T2 sequence (Q06432 whole entry): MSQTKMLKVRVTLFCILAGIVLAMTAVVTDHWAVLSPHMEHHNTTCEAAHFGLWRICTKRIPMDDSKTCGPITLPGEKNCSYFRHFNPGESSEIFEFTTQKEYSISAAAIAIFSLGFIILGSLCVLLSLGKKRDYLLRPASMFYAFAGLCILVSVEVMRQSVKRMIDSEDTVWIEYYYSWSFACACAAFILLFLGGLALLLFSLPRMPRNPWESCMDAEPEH

B1: CACNG1 mAb #1 (antibody, V domains shown)
VH: QVQLVESGGGVVQPGRSLRLSCTASGITFRNYGMHWVRQAPGKGLEWVAVMWYDGSNKYYADSVKGRFTISGDNSKVYLQMNSLRAEDTAVYYCARRGTIRTAAPFDYWGQGTLVTVSS
VL: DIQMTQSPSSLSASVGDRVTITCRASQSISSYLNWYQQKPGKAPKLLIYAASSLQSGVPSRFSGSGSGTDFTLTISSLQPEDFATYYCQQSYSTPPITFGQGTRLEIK
notes: On AAV particles the heavy chain was in a hIgG4US backbone, fused at its C-terminus to SpyCatcher and joined to SpyTag on the capsid; a Fab form was also used; also called anti-hCACNG1 mAb #1; anti-CACNG1 mAb #1
Regarding B1, in assay [1], the binding result was “no binding”.

B2: CACNG1 mAb #3 (antibody, V domains shown)
VH: QVQLVESGGGVVQPGRSLRLSCAASGFTFSTYGMHWVRQAPGKGLEWVAVIWHDGSDKYYVDSVKGRFSIARDNSKNTLYLQMNSLRVEDTGIYYCARRGIRGTVFDHWGLGTLVTVSS
VL: DIQMTQSPSTLSASVGDRVTLTCRASQSISNKLAWYQQKPGKAPNLLIYKASNLESGVPSRFSGSGSGTEFTLTISSLQPDDFATYYCQQYNSYSWTFGQGTKVEIK
notes: On AAV particles the heavy chain was fused at its C-terminus to SpyCatcher; also called Antibody Designation 3; 14572/10717
Turning to B2, the binding result in assay [2] and in assay [3] was “binds” in each case.

B3: CACNG1 mAb #5 (antibody, V domains shown)
VH: QVQLVESGGGVVQPGTSLRLSCAASGFTFSSYGMHWVRQAPGKGLEWVAVIWIDGSNKYYADSVKGRFTISRDNSKNTLYLQMNSLRAEDTAVYYCARRGGIVVAAPFDYWGQGTLVTVSS
VL: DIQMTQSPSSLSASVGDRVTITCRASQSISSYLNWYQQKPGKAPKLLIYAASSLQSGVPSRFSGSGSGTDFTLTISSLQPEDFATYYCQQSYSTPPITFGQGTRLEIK
notes: also called Antibody Designation 5; 14574/10783
Turning to B3, the binding result in assay [1] is “no binding”.
